Source: publication PMC6613818

Test system: C[C@@H]1O[C@H](OP(=O)(O)OP(=O)(O)OC[C@H]2O[C@@H](n3cnc4c(=O)[nH]c(N)nc43)[C@H](O)[C@@H]2O)[C@@H](O)[C@H](O)[C@@H]1O
Assay: purified protein
Settings: apparent, acceptor LacNAc 3 mM, Tris-HCl pH 7.5, 37 °C

Q: How did the Km turn out when Hp3FT (Helicobacter pylori) was run?
A: Its Km is 6.4480 ± 1.1360 mM.

Q: What about the kcat of the same substance?
A: The kcat was 0.617 ± 0.0417 s⁻¹.

Q: What about the kcat/Km of the same substance?
A: Its kcat/Km is 96 M⁻¹ s⁻¹.
